Assay [1] addresses GAL4DBD-SMRT fusion (silencing mediator for retinoid or thyroid hormone receptors). As to the kind of experiment: two-hybrid.
The target of assay [2] is GAL4DBD-NCoR fusion (nuclear receptor co-repressor). The experiment in a line: two-hybrid.
Assay [3] has as its target T1, constitutive androstane receptor (hCAR1) (Homo sapiens, UniProt Q14994).
T1 sequence (Q14994 109-352 limits assumed): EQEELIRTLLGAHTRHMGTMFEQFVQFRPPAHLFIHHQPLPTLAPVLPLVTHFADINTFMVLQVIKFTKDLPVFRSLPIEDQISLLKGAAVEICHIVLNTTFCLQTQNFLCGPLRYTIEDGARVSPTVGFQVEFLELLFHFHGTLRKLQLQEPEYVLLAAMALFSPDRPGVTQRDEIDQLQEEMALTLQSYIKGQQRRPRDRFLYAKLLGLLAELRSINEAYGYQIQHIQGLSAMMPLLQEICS
The experiment in a line: SPR. Format: binding.

For assay [4], the target named is T2, human CAR ligand-binding domain (hCAR1-LBD), purified (human).
T2 chain: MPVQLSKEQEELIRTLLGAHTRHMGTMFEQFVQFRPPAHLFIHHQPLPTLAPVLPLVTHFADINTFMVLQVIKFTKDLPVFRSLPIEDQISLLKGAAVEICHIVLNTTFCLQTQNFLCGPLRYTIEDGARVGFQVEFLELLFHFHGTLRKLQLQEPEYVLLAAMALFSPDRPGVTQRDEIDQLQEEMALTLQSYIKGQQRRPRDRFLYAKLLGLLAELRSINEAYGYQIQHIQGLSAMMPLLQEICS
The experiment in a line: HDX-MS.

We go through 4 molecules from publication PMC5960625 (Biochemical pharmacology, 2018).

Regarding “VP16AD-hCAR1 Y224A (full length) (receptor)”, the loss of interaction is 50% in assay [1] and 75% in assay [2].

In the case of “VP16AD-hCAR1 F217A (full length) (receptor)”, the loss of interaction was 50% in assay [1] and 75% in assay [2].

The Kd is the equilibrium constant for the complex coming apart. A higher Kd goes with weaker binding. `CCOC(=O)Nc1ccc2c(c1)N(C(=O)CN(CC)CC)c1ccccc1CC2` [CINPA1] yielded a Kd in assay [3] of approximately 548 µM.

B1: NCoR1-3 cofactor peptide (peptide)
peptide: ASNLGLEDIIRKALMGSFD
For B1, in assay [4], the binding result is listed as “binds”.
